Publication PMC5469197, “ANGUSTIFOLIA, a Plant Homolog of CtBP/BARS Localizes to Stress Granules and Regulates Their Formation” (Frontiers in Plant Science, 2017)

Experiments:
[1] = target: T1, ARGONAUTE1 (AGO1), Prot-A fusion (Arabidopsis thaliana, UniProt O04379 1-1048); test: co-IP; LUMIER in HEK293TN cells: Prot-A fusion co-transfected with Renilla luciferase fusion (AN always the luciferase fusion with the interactors); luciferase activity before (input) and after pulldown; percentage pulldown = pulldown/input x 100; empty vectors as negative control; positive if more than two times the background; conditions: partners not purified
T1 construct: ARGONAUTE1, Arabidopsis thaliana, AT1G48410; CDS amplified from Col-0 cDNA; source: HEK293TN cells, transfected; not shown: Protein A (Staphylococcus aureus), N-terminal, kept
T1 sequence (looked up): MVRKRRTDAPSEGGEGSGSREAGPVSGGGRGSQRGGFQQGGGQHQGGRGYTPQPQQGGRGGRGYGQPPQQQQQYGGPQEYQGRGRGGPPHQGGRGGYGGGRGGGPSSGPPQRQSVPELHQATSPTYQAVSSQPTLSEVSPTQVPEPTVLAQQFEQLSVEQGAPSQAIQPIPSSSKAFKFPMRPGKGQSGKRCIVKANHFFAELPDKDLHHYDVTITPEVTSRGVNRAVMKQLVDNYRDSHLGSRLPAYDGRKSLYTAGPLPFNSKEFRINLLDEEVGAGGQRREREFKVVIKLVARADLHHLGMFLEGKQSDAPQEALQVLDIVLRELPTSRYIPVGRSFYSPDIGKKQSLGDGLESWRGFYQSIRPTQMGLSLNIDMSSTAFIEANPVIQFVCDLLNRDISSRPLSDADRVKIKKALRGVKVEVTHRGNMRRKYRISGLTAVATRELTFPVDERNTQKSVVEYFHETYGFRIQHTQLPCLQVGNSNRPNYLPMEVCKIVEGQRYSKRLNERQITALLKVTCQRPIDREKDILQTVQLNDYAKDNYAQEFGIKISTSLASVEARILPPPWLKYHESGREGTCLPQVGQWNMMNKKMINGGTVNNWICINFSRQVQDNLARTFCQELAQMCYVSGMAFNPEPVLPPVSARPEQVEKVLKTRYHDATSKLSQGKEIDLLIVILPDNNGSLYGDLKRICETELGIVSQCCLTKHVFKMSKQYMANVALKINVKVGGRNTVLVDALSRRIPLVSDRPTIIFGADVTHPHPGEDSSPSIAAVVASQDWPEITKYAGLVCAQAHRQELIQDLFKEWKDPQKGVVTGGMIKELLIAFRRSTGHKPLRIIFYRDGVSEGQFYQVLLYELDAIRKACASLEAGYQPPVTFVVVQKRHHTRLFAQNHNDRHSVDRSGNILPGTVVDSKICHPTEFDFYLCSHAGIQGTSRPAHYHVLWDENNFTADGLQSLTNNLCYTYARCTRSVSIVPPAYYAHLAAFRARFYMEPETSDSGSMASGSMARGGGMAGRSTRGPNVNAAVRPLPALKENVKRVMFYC

[2] = target: T2, …ONALLY CONTROLLED TUMOR PROTEIN (TCTP), Prot-A fusion (Arabidopsis thaliana, UniProt P31265 1-168); test: as above; conditions: partners not purified
T2 construct: Translationally controlled tumor protein, Arabidopsis thaliana, AT3G16640; CDS amplified from Col-0 cDNA; source: HEK293TN cells, transfected; not shown: Protein A (Staphylococcus aureus), N-terminal, kept
T2 sequence (looked up): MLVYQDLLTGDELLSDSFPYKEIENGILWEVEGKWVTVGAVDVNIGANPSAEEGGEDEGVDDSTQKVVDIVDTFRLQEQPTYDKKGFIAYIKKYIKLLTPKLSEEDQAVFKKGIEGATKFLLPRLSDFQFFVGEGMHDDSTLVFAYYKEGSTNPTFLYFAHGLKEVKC

B1: AN, Renilla luciferase fusion (LUMIER) (natural protein, Arabidopsis thaliana, UniProt O23702 1-636, looked up)
chain: MSKIRSSATMPHRDQPSPASPHVVTLNCIEDCALEQDSLAGVAGVEYVPLSRIADGKIESATAVLLHSLAYLPRAAQRRLRPHQLILCLGSADRAVDSTLAADLGLRLVHVDTSRAEEIADTVMALILGLLRRTHLLSRHALSASGWLGSLQPLCRGMRRCRGMVLGIVGRSVSARYLASRSLAFKMSVLYFDVPEGDEERIRPSRFPRAARRMDTLNDLLAASDVISLHCALTNDTVQILNAECLQHIKPGAFLVNTGSCQLLDDCAVKQLLIDGTIAGCALDGAEGPQWMEAWVKEMPNVLILPRSADYSEEVWMEIREKAISILHSFFLDGVIPSNTVSDEEVEESEASEEEEQSPSKHEKLAIVESTSRQQGESTLTSTEIVRREASELKESLSPGQQHVSQNTAVKPEGRRSRSGKKAKKRHSQQKYMQKTDGSSGLNEESTSRRDDIAMSDTEEVLSSSSRCASPEDSRSRKTPLEVMQESSPNQLVMSSKKFIGKSSELLKDGYVVALYAKDLSGLHVSRQRTKNGGWFLDTLSNVSKRDPAAQFIIAYRNKDTVGLRSFAAGGKLLQINRRMEFVFASHSFDVWESWSLEGSLDECRLVNCRNSSAVLDVRVEILAMVGDDGITRWID
notes: ANGUSTIFOLIA (AN), Arabidopsis thaliana, AT1G01510; CDS amplified from Col-0 cDNA; in the dimerisation test the second copy must have been the N-terminal protein A fusion (surmised from the LUMIER format); also called wild-type AN; source: HEK293TN cells, transfected; not shown: Renilla reniformis luciferase, N-terminal, kept
[1]
  fold change from background: 5.02 fold
  percentage pulldown: 0.47%
[2]
  fold change from background: 3.12 fold
  percentage pulldown: 0.28%
